For the assay, the target named is human DOT1L^CC2 (second coiled-coil domain of DOT1L) (human) (UniProt Q8TEK3). In words: SEC. For orientation: SEC sorts molecules by how far they enter the pores of the column.

With “human DOT1L^CC2 (second coiled-coil domain of DOT1L) (from UniProt Q8TEK3 1-1537) (domain or fragment)”, the stoichiometry N (commonly a count of units in the complex or per binding partner) worked out at 2.

Values taken from article PMC5900708.
